Assay results published in PMC10247153, “Chromatin Sensing by the Auxiliary Domains of KDM5C Regulates Its Demethylase Activity and Is Disrupted by X-linked Intellectual Disability Mutations”.

Molecular target: T1, KDM5C ARID (Homo sapiens, UniProt P41229 73-188)
T1 sequence: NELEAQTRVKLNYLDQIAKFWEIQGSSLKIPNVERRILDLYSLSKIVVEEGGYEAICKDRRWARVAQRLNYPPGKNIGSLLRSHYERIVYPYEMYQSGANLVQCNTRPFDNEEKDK
Test: EMSA; apparent Kd; EMSA: 50 mM HEPES pH 7.5, 50 mM KCl, 1 mM BME, 0.01% Tween-20, 0.01% BSA, 5% sucrose, 1 h on ice; 100 nM nucleosome or 147 bp DNA, 500 nM 20 bp DNA; gel at 4 C.
Conditions: protein: recombinant; tags: 6xHis-SUMO cleaved

B1: 5' flanking (linker) DNA 20 bp (dsDNA)
DNA 1: GGACCCTATACGCGGCCGCC
DNA 2: GGCGGCCGCGTATAGGGTCC
B1 was tested, and the Kd was 9.9 ± 0.4 µM.
